The source of these data is the supplement of paper PMC7125110.

What is called kcat is the maximal rate divided by the concentration of active sites. Usually KM stands for the concentration of substrate that gives half-maximal velocity.

The chains are these.
B1: glmS ribozyme (parent)
chain: AUAAAAGCGCCAGAACUACAGAAAUGUAGUUGACGAGGAGGAGGUUUAUCGAAUUUUCGGCGGAUGCCUCCAAA

What all share (conditions): with glucosamine-6-phosphate
Data set [1] covers variants of B1. As to the kind of experiment: kcat; higher = faster cleavage; RNA array. Summed up: (§1)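 Weighted Michaelis–Menten fits across concentrations supplied kcat and KM, based on kobs from one- or two-exponential decay fits to normalised per-tile medians. The data came from barcoded ribozyme variants transcribed in situ by E. coli RNA polymerase on sequenced MiSeq chips and tracked at 37 °C by a hybridised Cy3 probe. Glucosamine-6-phosphate (40 μM to 10 mM) in HEPES/KCl/Mg(OAc)2 buffer was flowed in.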

The variants in data set [2] derive from B1. The data set is described as follows: self-cleavage kobs at 640 uM GlcN6P; higher = faster cleavage; RNA array. Summed up:
as §1

The variants in data set [3] derive from B1. As to the kind of experiment: KM; higher = weaker cofactor use; RNA array. Summed up: as §1
In data set [4] the parent is B1. The data set is described as follows: self-cleavage kobs at 2500 uM GlcN6P; higher = faster cleavage; RNA array. Summed up: as §1
The variants in data set [5] derive from B1. The data set is described as follows: self-cleavage kobs at 10000 uM GlcN6P; higher = faster cleavage; RNA array. Summed up: as §1
Variants of B1 are the subject of data set [6]. As to the kind of experiment: self-cleavage kobs at 40 uM GlcN6P; higher = faster cleavage; RNA array. Summed up:
as §1

The variants in data set [7] derive from B1. The data set is described as follows: self-cleavage kobs at 160 uM GlcN6P; higher = faster cleavage; RNA array. Summed up:
as §1

± gives the standard error. For some assays here: Fewer inactive variants are shown than the library holds.

Turning to AUAAAAGCGCCAGAACUACAGAAAUGUAGCUGACGAGGAGGAGGUUUAUCGAAUUUUUGGCGGAUGCCUCCAAA [U30C C58U], in the data set with glucosamine-6-phosphate [1], the kcat was determined as 3.26e-05 ± 1.4e-05 s⁻¹. Also, the “self-cleavage kobs at 640 uM GlcN6P” value in the data set with glucosamine-6-phosphate [2] is less than 1e-05 s⁻¹.
For AUAAAAGCGCCAGCACUACAGAAAUGUAGUUGACGAGGAUGAGGUUUAUCGAAUUUUCGGCGGAUGCCUCCAAA [A14C G40U], the kcat with glucosamine-6-phosphate [1] turned out to be 0.000718 ± 9.8e-05 s⁻¹. Besides, the KM in the data set with glucosamine-6-phosphate [3] was determined as 2800 ± 790 µM. For the same variant, in the data set with glucosamine-6-phosphate [2], the “self-cleavage kobs at 640 uM GlcN6P” value worked out at 0.000144 ± 2.2e-05 s⁻¹. For the same variant, the “self-cleavage kobs at 2500 uM GlcN6P” value with glucosamine-6-phosphate [4] came to 0.000352 ± 6.1e-05 s⁻¹. Further, the “self-cleavage kobs at 10000 uM GlcN6P” value with glucosamine-6-phosphate [5] is 0.000555 ± 5.2e-05 s⁻¹.
Consider AUAAAAGCGCCAGAACUACAGAAAUGUAGGUGACGAGGAGGAGGUUUAUCGAAUUUUCGACGGAUGCCUCCAAA [U30G G60A], for which, in the data set with glucosamine-6-phosphate [1], the kcat was determined as 1.25e-05 ± 1.8e-06 s⁻¹. Further, the “self-cleavage kobs at 40 uM GlcN6P” value in the data set with glucosamine-6-phosphate [6] is less than 1e-05 s⁻¹. In addition, the “self-cleavage kobs at 160 uM GlcN6P” value in the data set with glucosamine-6-phosphate [7] was less than 1e-05 s⁻¹.
For the variant AUAAAAGCGCCAGAACUACAGAAAUGUAGUUCACGAGGUGGAGGUUUAUCGAAUUUUCGGCGGAUGCCUCCAAA [G32C A39U], in the data set with glucosamine-6-phosphate [1], the kcat was determined as 6.89e-05 ± 3.3e-06 s⁻¹. For the same variant, the KM with glucosamine-6-phosphate [3] is 9270 ± 880 µM. In addition, in the data set with glucosamine-6-phosphate [5], the “self-cleavage kobs at 10000 uM GlcN6P” value came out at 3.58e-05 ± 6.1e-06 s⁻¹.
Regarding AUAAAAGCGCCAGAAGUACAGAAAUGUAGUUGACGAGGAGUAGGUUUAUCGAAUUUUCGGCGGAUGCCUCCAAA [C16G G41U], in the data set with glucosamine-6-phosphate [1], the kcat came out at 0.000139 ± 1.4e-05 s⁻¹. Also, the Michaelis constant (KM) in the data set with glucosamine-6-phosphate [3] was found to be 2720 ± 780 µM. In the data set with glucosamine-6-phosphate [4], the “self-cleavage kobs at 2500 uM GlcN6P” value was found to be 7.39e-05 ± 1.7e-05 s⁻¹. Further, in the data set with glucosamine-6-phosphate [5], the “self-cleavage kobs at 10000 uM GlcN6P” value turned out to be 0.000107 ± 1.5e-05 s⁻¹.
With AUAAAAGCGCCAAAACUACAGAAAUGUAGUUGACGAGGAGGAGGUUUAUCGAAUUAUCGGCGGGUGCCUCCAAA [G13A U56A A64G], the kcat in the data set with glucosamine-6-phosphate [1] was 0.000331 ± 5.8e-05 s⁻¹. Besides, in the data set with glucosamine-6-phosphate [3], the KM came out at 2310 ± 840 µM. The “self-cleavage kobs at 640 uM GlcN6P” value in the data set with glucosamine-6-phosphate [2] turned out to be 8.33e-05 ± 2.5e-05 s⁻¹. In addition, the “self-cleavage kobs at 2500 uM GlcN6P” value with glucosamine-6-phosphate [4] came out at 0.000158 ± 3e-05 s⁻¹. The “self-cleavage kobs at 10000 uM GlcN6P” value with glucosamine-6-phosphate [5] came out at 0.000291 ± 6.6e-05 s⁻¹.
As for AUAAAAGCGCCAGAACUACAGAAAUGUAGUUGACGAGGACGAGGUUUAUCGACUUUUCGGCGGAUGCCUCCAAA [G40C A53C], the catalytic constant (kcat) in the data set with glucosamine-6-phosphate [1] worked out at 0.000789 ± 2e-05 s⁻¹. Also, in the data set with glucosamine-6-phosphate [3], the KM was 2240 ± 110 µM. For the same variant, the “self-cleavage kobs at 160 uM GlcN6P” value with glucosamine-6-phosphate [7] is 5.46e-05 ± 1.9e-05 s⁻¹. Besides, in the data set with glucosamine-6-phosphate [2], the “self-cleavage kobs at 640 uM GlcN6P” value came to 0.000176 ± 2.5e-05 s⁻¹. In addition, in the data set with glucosamine-6-phosphate [4], the “self-cleavage kobs at 2500 uM GlcN6P” value stood at 0.0004 ± 6.6e-05 s⁻¹. In addition, in the data set with glucosamine-6-phosphate [5], the “self-cleavage kobs at 10000 uM GlcN6P” value was found to be 0.000652 ± 7.2e-05 s⁻¹.
In the case of AUAAAAGCGCCAGACCUACAGAAAUGUAGUUGACGAGGAGGGGGUUUAUCGAAUUUUCGGCGGAUGCCUCCAAA [A15C A42G], the kcat in the data set with glucosamine-6-phosphate [1] was found to be 0.00745 ± 0.00078 s⁻¹. The KM with glucosamine-6-phosphate [3] is 1450 ± 220 µM. Also, in the data set with glucosamine-6-phosphate [6], the “self-cleavage kobs at 40 uM GlcN6P” value amounted to 0.000206 ± 3.8e-05 s⁻¹. Further, the “self-cleavage kobs at 160 uM GlcN6P” value with glucosamine-6-phosphate [7] was found to be 0.000843 ± 0.00038 s⁻¹. Also, the “self-cleavage kobs at 640 uM GlcN6P” value with glucosamine-6-phosphate [2] was found to be 0.00216 ± 0.00062 s⁻¹. In addition, the “self-cleavage kobs at 2500 uM GlcN6P” value with glucosamine-6-phosphate [4] turned out to be 0.00411 ± 0.001 s⁻¹. The “self-cleavage kobs at 10000 uM GlcN6P” value with glucosamine-6-phosphate [5] was 0.00721 ± 0.0015 s⁻¹.
